Reference: patent US12187779B2 (dated 2025)

Molecular target: T1, HPV 16 E6 peptide on HLA-A*02:01 (human)
T1 peptide: TIHDIILECV
Test: multimer staining

B1: E6 TCR (TCR, V domains shown)
Valpha: GQQLNQSPQSMFIQEGEDVSMNCTSSSIFNTWLWYKQDPGEGPVLLIALYKAGELTSNGRLTAQFGITRKDSFLNISASIPSDVGIYFCAGHPSSNSGYALNFGKGTSLLVTP
Vbeta: GAGVSQSPRYKVTKRGQDVALRCDPISGHVSLYWYRQALGQGPEFLTYFNYEAQQDKSGLPNDRFSAERPEGSISTLTIQRTEQRDSAMYRCASSSQTGARTDTQYFGPGTRLTVL
B1: recognises.
